Assay results: publication PMC3025952, “Characterization of a core fragment of the rhesus monkey TRIM5α protein” (BMC Biochemistry, 2011)
Residue numbers refer to the chain shown, from its start. In names and notes the source's numbering stands.

What was measured:
[1] = biological target: the molecule itself; assay: SEC; Superdex 200 (10/30) column calibrated with globular molecular-weight markers, PBS; for LLER also with 25 μM ZnCl2 and DTT (profile not significantly affected)
[2] = biological target: the molecule itself; assay: single-particle cryo-electron microscopy; peak 1 and peak 2 gel-filtration fractions of LLER; peak 2 also incubated with an anti-His6 antibody to count the tags in a particle
[3] = biological target: the molecule itself; assay: SEC-MALS; SEC-LS: about 300 μg LLER on Superose 6 HR 10/30 with in-line Dawn EOS light scattering, refractometer and UV detector

B1: BCCL2 protein, wild-type (B-box 2, coiled coil and linker 2 region of rhesus monkey TRIM5α), His6-tagged, from E. coli (domain or fragment)
chain: GSGLVPRGSASMSDSEVNQEAKPEVKLSPEEGQKVDHCARHGEKLLLFCQEDSKVICWLCERSQEHRGHHTFLMEEVAQEYHVKLQTALEMLRQKQQEAEKLEADIREEKASWKIQIDYDKTNVSADFEQLREILDWEESNELQNLEKEEEDILKSLTKSETEMVQQTQYMRELISELEHRLQGSMMDLLQGVDGIIKRIENMTLKKPKTFHKNQRRVFRAPDLKGMLDMFRELTDA
notes: vector-derived spacer between the His6 tag and E83 of TRIM5αrh; Predicted molecular weight with tag and spacer 29.026 kD; also called wild-type (wt); core fragment of TRIM5αrh; source: E. coli BL21(DE3)pLysS, purified (Ni-NTA, SEC, anion exchange); not shown: His6, N-terminal, kept
B1: binds [1].

B2: BCCL2 LLER protein (L105E, L106E, E120R, R121E), His6-tagged, from E. coli (domain or fragment, rhesus monkey)
chain: B1 chain with L46E, L47E, E61R, R62E
notes: vector-derived spacer between the His6 tag and E83 of TRIM5αrh; also called LLER variant; source: E. coli BL21(DE3)pLysS, purified (Ni-NTA, anion exchange, SEC); not shown: His6, N-terminal, kept
In the case of B2, the “stoichiometry N” value [2] is reported as no less than 2 and the “stoichiometry N” value [3] is reported as 2.
